Experimental findings from publication PMC8256705, “Putative hexameric glycosyltransferase functional unit revealed by the crystal structure of Acinetobacter baumannii MurG” (IUCrJ, 2021) are described below.

Data set [1] deals with the molecule itself. The experiment in a line: SEC-MALS; highly oligomeric SEC peak; Superdex 200 10/300, 20 mM Tris-HCl pH 8.0, 150 mM NaCl, 0.4 ml/min, 25°C. Background: SEC sorts molecules by how far they enter the pores of the column.
Data set [2] deals with the molecule itself. The experiment in a line: SEC-MALS; dimer-sized SEC peak; Superdex 200 10/300, 20 mM Tris-HCl pH 8.0, 150 mM NaCl, 0.4 ml/min, 25°C.

For orientation: stoichiometry N means the number of molecules, sites or subunits per partner or assembly.

B1: MurG from Acinetobacter baumannii (abMurG), full length, wild type (enzyme, UniProt A3M9Y1 1-365, looked up)
chain: MTDSQQSKPKHVMMMAAGTGGHVFPALAVAKQLQQQGCQVSWLATPTGMENRLLKDQNIPIYQIDIQGVRGNGVIRKLAAPFKILKATFSAMRYMKQLKVDAVAGFGGYVAGPGGLAARLLGIPVLIHEQNAVAGFTNAQLSRVAKVVCEAFPNTFPASEKVVTTGNPVRREITDILSPKWRYDEREQADKPLNILIVGGSLGAKALNERLPPALKQLEVPLNIFHQCGQQQVEATQALYADAPANLTIQVLPFIEDMAKAYSEADLIICRAGALTVTEVATAGVAAVFVPLPIAVDDHQTANAKFLADIGAAKICQQSTMTPEVLNQLFTTLMNRQLLTEMAVKARQHAQPNATQHVVDLIQKM
notes: MurG glycosyltransferase of Acinetobacter baumannii, full length, amino acids Met1-Met365 (365 amino acids); Theoretical mass with the C-terminal His tag is printed as 39.4 kDa; Found as a dimer and as a hexamer in solution; only the large-size SEC peak crystallized; also called wild-type abMurG; source: E. coli BL21 (DE3), purified (nickel-nitrilotriacetic acid resin, SEC); not shown: His tag, …
For B1, the figures for the “stoichiometry N” value in data set [1] and in data set [2] were 6 and 2, respectively.
